{"source": "patent US20210108251", "about": "“DETECTION OF ENDONUCLEASE ACTIVITY” (AARHUS UNIVERSITET, published 2021)", "binders": {"B1": {"name": "REN2-PB-EcoRI (structured_DNA)", "DNA": "ATTTCCAGAATTCTGGGTATAGGAACTTCGAACGACTCGACTGTGAAGATCGCTTATCGAGTCGTTCGAAGTTCCTATACCCAGAATTCTGGAAAT", "modifications": "5'-amine and 3'-amine"}, "B2": {"name": "REN2-ID33-EcoRI (structured_DNA)", "DNA": "ATTTGACGAATTCGTCGTATAGGAACTTCGAACGACTCGCCTCAATGCACATGTTTGGCTCCCGAGTCGTTCGAAGTTCCTATACGACGAATTCGTCAAAT", "modifications": "5'-amine and 3'-amine"}}, "key": {"[1]": {"biological_target": "T1, EcoRI (UniProt P00642 P00642:2-277)", "T1 sequence (P00642 2-277, one chain of several)": "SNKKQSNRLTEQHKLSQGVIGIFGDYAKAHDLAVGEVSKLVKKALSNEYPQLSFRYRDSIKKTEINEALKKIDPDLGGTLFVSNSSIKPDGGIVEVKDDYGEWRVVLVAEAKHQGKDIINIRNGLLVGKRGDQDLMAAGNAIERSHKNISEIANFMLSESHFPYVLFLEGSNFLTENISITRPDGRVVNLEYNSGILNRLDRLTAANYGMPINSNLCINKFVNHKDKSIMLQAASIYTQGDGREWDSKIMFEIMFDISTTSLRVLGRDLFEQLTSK", "experiment": "cleavage_in_vitro; assayed as pair with SEQ 1; cleavage-ligation-RCA readout; Mg acetate pH 7.9, 37 C; std error 6.6", "conditions": "tags: Thermo Scientific; chain copies: 2; hairpin", "procedure": "(§1) For detection of EcoRI activity, 50 pmol of each of the two substrates REN2-ID33-EcoRI (SEQ ID NO: 1) and REN2-PB-EcoRI (SEQ ID NO: 2) were incubated for 1 h at 37° C. either with or without 10 units of EcoRI. The reaction was done in a reaction buffer containing 500 mM Potassium Acetate; 200 mM Tris-acetate; 100 mM Magnesium Acetate; and 1 mg/ml BSA (pH 7.9). The reaction volume was 50 μL. After incubation, the restriction endonuclease was inactivated by heating to 94° C. for 10 minutes. ATP was added to a final concentration of 10 mM and 1 unit of T4 ligase (Invitrogen) was added. The reaction mixture was then incubated over night at room temperature.\n(§2) The two substrate molecules carrying the EcoRI cleavage sites (see materials and methods) were incubated with or without purified enzyme and subjected to the protocol as described in materials and methods (see also FIG. 1A). After counting the signals, the fold increase over background (no enzyme) was calculated."}, "[2]": {"biological_target": "T1, EcoRI", "experiment": "cleavage_in_vitro; assayed as pair with SEQ 2; cleavage-ligation-RCA readout; Mg acetate pH 7.9, 37 C; std error 6.6", "conditions": "tags: Thermo Scientific; chain copies: 2; hairpin", "procedure": "as §1, §2"}}}
{"binder": "B1", "values": [{"measurement": "activity", "setting": "[1]", "value": 110, "unit": "fold over no enzyme"}]}
{"binder": "B2", "values": [{"measurement": "activity", "setting": "[2]", "value": 110, "unit": "fold over no enzyme"}]}
